Source: PMC3635987

Target: PrgH_(11–120), cytoplasmic domain of the inner-membrane ring protein PrgH (Salmonella enterica serovar Typhimurium) (UniProt P41783)
Assay: crystal structure; PrgH_(11–120) at 5–10 mg/ml, 20°C, 15–20% PEG 6000, 0.02 M CaCl2, 0.1 M HEPES pH 6.5; packing in the asymmetric unit

For “PrgH_(11–120), cytoplasmic domain of the inner-membrane ring protein PrgH (from UniProt P41783 11-120) (domain or fragment)”, the stoichiometry N was 6.
